The data set is described as follows: soluble on expression in E. coli; label from the status in PepcDB or PDB records.
Turning to “MGSDKIHHHHHHMSRVETIINELSLIASNPRKAMEDYKKETGKGAVGIMPVYAPEELVHAAGFLPMGIWGGQKSISKARTYLPPFACSIMQSVMEMQLEGVYDDLEAVIFSVPCDTLKCLSQKWKGKSPVIVFTHPQNRKLEAANKFLVEEFKLVREKLEKILNVKITDEAINNSIEVYNENRKVMREFSDIAGQYSKTISAAARHAVIKARFFMEKSKHTAMVRELINELKAMPAEECGKKVVLTGIMAEPNEVLDILTENGFTVVADDLAQESRQFRLDVPAGTDPLYRLAEWWQQFDGCALATNVKKPRGQMLMDMVKKYDADAVIVCMMKFCDPEEFDYPIYYSQFEEAGIKSLYIEIDQESTSFEQIKTRVQSFGEML”, the “soluble on expression in E. coli” value is reported as “not soluble”. With “MTPHPRLSIGLPVYNGEEYLAESLDALLGQTYENFELVISDNASTDGTRDICRRYAAQDSRIRYIRLPRNIGAAPNHNYVFTECRGELFKWASHDDLYARDLLRSCVAALDERPEVVLAHAGQAVIDGDGKVKVPYEYGLATDSPRAPERFRSLLFEPGGDDFYGVMRSAMLRRVKPHDSYHHADRTFVAEITLHGPFHQVPELLYFRRDHPTRAERANPSKRSRCVNLDPRRAGPLHPTPRLLAEYVWGFASAIGRAPLSSADRRACHRHLAAWLTSRVRPGVGERVEDRAPVDPDRLTVSVDDLVAGREGRQALEHHHHHH” the entry was “not soluble”; with “MGSDKIHHHHHHMSHTEVKLKIPFGNKLLDAVCLVPNKSLTYGIILTHGASGDMNLPHLMSLASHLASHGFFCLRFTCKGLNIVHRIKAYKSVLNYLKTSGEYKLAGVFLGGRSMGSRAAASVMCHIEPDDGDDFVRGLICISYPLHHPKQQHKLRDEDLFRLKEPVLFVSGSADEMCEKNLLEKVAQKMQAPHKIHWIEKANHSMAVKGRSTNDVFKEINTQILFWIQEITEMDKKCH”, “not soluble”. As for “MKRSTTDSDLAGDAHNETNKKMKSTEEEEIGFSNLDENLVYEVLKHVDAKTLAMSSCVSKIWHKTAQDERLWELICTRHWTNIGCGQNQLRSVVLALGGFRRLHSLYLWPLSKPNPRARFGKDELKLTLSLLSIRYYEKMSFTKRPLPESK”, the entry is “soluble”; as for “MIVNAFYNEKGVGDTLLIETGEVTFENREWERRGDVARIFDRETKQVAGFNIFNSSKYFDITANGKVDLTEELVALMNQVIEKAGFEPEIVADLTPKFVVGYVESKEKHPNADKLNVCQINVGGEVLQIVCGAPNIDAGQKVVVAKIGAVMPSGLIIKPSNLRGEDSFGMVCAARELAIPNAPTEKGILVLEDSATPGEEFPVNFLEHHHHHH”, “not soluble”. With “MKLLKDLLVDRKEFEDWKNNLTWARDGTLYLTTFPDISIGQPKYAKDINCNSKNLFHVKEFPLEFENKLDFELAQQNGLLNSQPVCYPRVCKPSPIDDWMAVLSNNGNVSVFKDNKMLTNLDSKGNLSSRTYHCFEWNPIESSIVVGNEDGELQFFSIRKNSENTPEFYFESSIRLSDAGSKDWVTHIVWYEDVLVAALSNNSVFSMTVSASSHQPVSRMIQNASRRKITDLKIVDYKVVLTCPGYVHKIDLKNYSISSLKTGSLENFHIIPLNHEKESTILLMSNKTSYKVLLEDELHVTADNIIAPYLEKKFKKWSTIWNEFNNYETTLVIHGISLSPDGYSIAIVYDMERVAFKYKIASEQSFNIMFAPLYHTWTISERAVGLAWYQTYQIYNQSLPKLPENFSMNKKLLNGNYPISLDFQSYLNALMKSEEMRIIMFLNMTIDKPSILSFLEALYEYAINKKSELTNSFDLACVLSIAAILKREAPIYNGTLLMKNSFLEETFNLESFTADPETVTSTTNNTWKRCGVTLLPILTTHVKICPVSKQRVIDIKRDDLNDYGWFTRGLLERFNEISVYCGTTLEVM” the entry was “soluble”; with “MPFLPPLTPPTELYLGIQLPNPISILVNYLPVSQTPIETLRNLVYSCNINTLAIDEFMTWPSLLQPESTFRSYFELLVERGSIPAVYLEGVRQASNFVTVAQGLSVMTTVALSDPFACFATGLFLTCTGNHLDFLPISEKFWEMTPTLEAGHAVAEMVMYHISQLHTENARRWERSWRFVHPPSCVGQGDCYILLEAKLLRFKLLYSALLSSLLV”, “not soluble”; with “MAHHHHHHMWDPFRDIDRIFNRVLPLTGAGSFSSFSRGSWSPAMDLVEKPEGYKLLVDLPGMNREDIQVGIEDNRLCISGNRKSLLKDDEQHLAVFLERGYGRFERCMNLPSPIVEESVKARLRDSVLVVELKKNNSPASSAATSVTIQ”, “soluble”. Regarding “MYVTIVYASVKTDKTEAFKEATRMNHEQSIREPGNMRFDILQSADDPTRFVLYEAYKTRKDAAAHKETAHYLTWRDTVADWMAEPRKGVIYGGLYPTGDD”, the “soluble on expression in E. coli” value was “soluble”.

The record behind these values is the DeepSol protein solubility set.
